How the values were obtained:
[1] = substrate: NCCCC[C@H](N)C(=O)O; assay: L-amino acid oxidase (LAAO) enzyme-coupled assay of purified escapin; assay type: biochemical, Aplysia californica; conditions: other: horseradish peroxidase/o-dianisidine coupled assay, 0.1 M Tris-HCl pH 7.6, room temperature, O.D. 436 nm, Lineweaver-Burk plot
Source text: (§1) Animals. Sea hares, Aplysia californica, were collected in California or provided by the NIH National Resource for Aplysia Facility (http://www.rsmas.miami.edu/groups/sea-hares/). They were maintained in aquaria containing recirculating, filtered, and aerated artificial sea water (Instant Ocean™: Aquarium Systems), and fed red alga (Gracilaria ferox). Ink gland processing. The ink glands were surgically removed from sea hares, gently squeezed in a Petri dish with the blunt end of a scalpel handle to release most of the ink secretion from the individual vesicles contained in the gland. The secretion was then pipetted to a microfuge tube and frozen at −80° C. until needed. Opaline gland processing. The opaline glands were surgically removed from sea hares, gently blotted dry on a Kimwipe® to remove seawater (since water causes opaline secretion to polymerize) and transferred to an ultracentrifuge tube. This was centrifuged at 30,000 g for 30 min at 4° C. (Beckman Optima TLX Ultracentrifuge). The pure opaline was then pipetted away from the gland tissue, transferred to a microfuge tube, and frozen at −80° C. until needed. Purification of proteins from purple ink. Proteins were isolated and purified using an ÄKTA 100 Automated FPLC (Amersham Pharmacia Biotech). A preparative grade Hi-Load Superdex 200 16/60 column (Pharmacia) or an in-house-packed Sephacryl 300 HR 26/60 column was used for initial size separation with fractions collected in an automated fraction collector. Fractions identified to have activity by bacterial assay were concentrated using a Biomax 5K NMWL membrane Ultrafree Centrifugal Filter Device (Millipore). Active fractions were further purified on a cation exchange Mono S column, and fractions were collected, assayed, concentrated, and frozen at −80° C. One purified protein of interest was named “escapin” and was bright yellow. Escapin's concentration was determined by Bradford assay using bovine serum albumen (BSA) as a standard. The molecular mass of purified escapin was determined by gel filtration using a Superose-6 10/30 column (Amersham Pharmacia Biotech) eluted with 50 mM potassium phosphate buffer (pH 7.2) containing 150 mM KCl at a flow rate of 0.5 ml/min. The molecular weight markers were BSA (67 kDa), ovalbumen (43 kDa), and chymotrypsinogen A (25 kDa). Protein sequencing. Aplysia californica ink was analyzed for protein content using sodium dodecyl sulfate polyacrylamide gel electrophoresis (SDS-PAGE) on 12% gels. […] This band was blotted from the polyacrylamide gel to a PVDF membrane using CAPS transfer buffer and determined by protein microsequencing and proteomic mass spectrometry (University of Massachusetts Medical School Proteomic Mass Spectrometry Lab: http://www.umassmed.edu/proteomic/leszyk). […]

[2] = substrate: N=C(N)NCCC[C@H](N)C(=O)O; assay: as above; assay type: biochemical, Aplysia californica; conditions: other: horseradish peroxidase/o-dianisidine coupled assay, 0.1 M Tris-HCl pH 7.6, room temperature, O.D. 436 nm, Lineweaver-Burk plot
Source text: as §1

B1: Aplysia californica escapin (L-amino acid oxidase), wild type purified from ink, SEQ ID NO:1 (Aplysia californica) (protein)
chain: DGVCRNRRQCNKEVCGSSYDVAIVGAGPGGANSAYMLRESGLDIAVFEYSDRVGGRLFTYQLPNTPDVNLEIGGMRFIEGAMHRLWKVISELGLTPKVFKEGFGKEGRQRFYLRGQSLTKKQVKSGDVPYDLSPEEKANQGRLVEYYLEKLTGLQLNGGPLKREVALKLTVPDGRFLYDLTFDEALDLVASPEGKEFARDTHVFTSEVTLDASAISIFDDHLGEDYYGSEIYTLEEGMSSVPQGLLQTFLDAAKSNEFFPNNHLKALRRRTNGQYVLYFEPTTSKDGQTTINYLEPLKVVCAQRVILAMPVYALRQLDWSQLRNDRATQAYRAVRPMPASKVFMTFDQPWWLQNERKSWVTKSDALFSQMYDWQKSEASGDYILIASYADGLKAQYLRELKNQGEDIPGSDPGYNQVTVPLKDAILEHLTEAYGVERDSIPEPVTAASQFWTDYPFGCGWITWRAGYHFDDVISTMRRPSLKDEVYVVGSDYSWGLISSWIEGALETSENVINDYFL
notes: a signal peptide cleavage site between 18 and 19 amino acid residues was predicted by SignalIP; from tissue; host or cells: ink (ink gland secretion) of Aplysia californica
[1]
  Km: 31 µM
  Vmax: 1.92 µM/s
[2]
  Km: 25 µM
  Vmax: 1.56 µM/s
